Data published in US20240000957A1 (published 2024).

T1: Human EphA7 Fc fusion (Human, UniProt Q15375 28-555, limits assumed)
T1 construct: SPR; R&D Systems 6756-A7
T1 sequence (looked up): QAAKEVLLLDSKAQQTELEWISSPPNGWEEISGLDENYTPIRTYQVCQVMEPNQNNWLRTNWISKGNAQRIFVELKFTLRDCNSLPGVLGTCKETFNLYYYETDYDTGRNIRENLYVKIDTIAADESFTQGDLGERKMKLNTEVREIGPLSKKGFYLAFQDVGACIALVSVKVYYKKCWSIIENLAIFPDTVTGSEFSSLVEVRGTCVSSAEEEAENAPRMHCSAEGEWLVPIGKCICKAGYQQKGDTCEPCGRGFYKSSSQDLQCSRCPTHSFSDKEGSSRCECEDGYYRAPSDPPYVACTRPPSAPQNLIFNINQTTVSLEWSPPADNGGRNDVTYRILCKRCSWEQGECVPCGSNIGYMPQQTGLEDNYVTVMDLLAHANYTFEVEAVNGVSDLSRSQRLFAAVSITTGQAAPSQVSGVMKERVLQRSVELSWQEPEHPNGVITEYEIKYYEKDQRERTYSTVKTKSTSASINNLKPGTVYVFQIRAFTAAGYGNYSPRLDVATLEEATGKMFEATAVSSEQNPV

T2: Rat EphA3 Fc fusion (Rat, UniProt O08680 21-541)
T2 construct: SPR; Sino Biologics 80465-R02H
T2 sequence (looked up): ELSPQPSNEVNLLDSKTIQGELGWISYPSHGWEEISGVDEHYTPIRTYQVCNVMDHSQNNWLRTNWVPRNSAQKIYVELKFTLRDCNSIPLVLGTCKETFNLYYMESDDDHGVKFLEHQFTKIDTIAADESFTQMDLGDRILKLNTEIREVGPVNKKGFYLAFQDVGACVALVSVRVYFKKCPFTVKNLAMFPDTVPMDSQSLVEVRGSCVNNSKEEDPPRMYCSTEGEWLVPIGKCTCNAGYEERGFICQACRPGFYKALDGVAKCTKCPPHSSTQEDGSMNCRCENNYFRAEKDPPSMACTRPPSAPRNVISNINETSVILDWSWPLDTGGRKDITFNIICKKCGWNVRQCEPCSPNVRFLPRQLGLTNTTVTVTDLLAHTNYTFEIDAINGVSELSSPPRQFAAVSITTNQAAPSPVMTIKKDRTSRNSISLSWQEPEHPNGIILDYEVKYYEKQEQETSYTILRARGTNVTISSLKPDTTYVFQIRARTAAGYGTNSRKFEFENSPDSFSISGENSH

T3: Human EphA3 Fc fusion (Human, UniProt P29320 21-541, limits assumed)
T3 construct: SPR; R&D Systems 6444-A3
T3 sequence (looked up): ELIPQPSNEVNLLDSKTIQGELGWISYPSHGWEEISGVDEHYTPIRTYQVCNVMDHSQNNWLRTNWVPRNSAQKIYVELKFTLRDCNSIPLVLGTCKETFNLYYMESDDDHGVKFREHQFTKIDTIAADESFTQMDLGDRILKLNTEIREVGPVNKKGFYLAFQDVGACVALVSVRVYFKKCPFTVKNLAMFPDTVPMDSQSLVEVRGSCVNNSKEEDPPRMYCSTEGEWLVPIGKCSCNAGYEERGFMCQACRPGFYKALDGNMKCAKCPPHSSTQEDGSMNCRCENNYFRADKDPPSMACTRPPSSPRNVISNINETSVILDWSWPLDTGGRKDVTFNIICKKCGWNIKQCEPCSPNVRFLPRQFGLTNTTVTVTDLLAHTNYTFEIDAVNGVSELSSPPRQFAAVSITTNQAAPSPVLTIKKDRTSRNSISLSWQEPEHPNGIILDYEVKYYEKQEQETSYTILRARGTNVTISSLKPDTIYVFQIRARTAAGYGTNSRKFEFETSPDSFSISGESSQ

T4: Human EphB4 Fc fusion (Human, UniProt P54760 16-539)
T4 construct: SPR; Sino Biologics 10235-H02H
T4 sequence (looked up): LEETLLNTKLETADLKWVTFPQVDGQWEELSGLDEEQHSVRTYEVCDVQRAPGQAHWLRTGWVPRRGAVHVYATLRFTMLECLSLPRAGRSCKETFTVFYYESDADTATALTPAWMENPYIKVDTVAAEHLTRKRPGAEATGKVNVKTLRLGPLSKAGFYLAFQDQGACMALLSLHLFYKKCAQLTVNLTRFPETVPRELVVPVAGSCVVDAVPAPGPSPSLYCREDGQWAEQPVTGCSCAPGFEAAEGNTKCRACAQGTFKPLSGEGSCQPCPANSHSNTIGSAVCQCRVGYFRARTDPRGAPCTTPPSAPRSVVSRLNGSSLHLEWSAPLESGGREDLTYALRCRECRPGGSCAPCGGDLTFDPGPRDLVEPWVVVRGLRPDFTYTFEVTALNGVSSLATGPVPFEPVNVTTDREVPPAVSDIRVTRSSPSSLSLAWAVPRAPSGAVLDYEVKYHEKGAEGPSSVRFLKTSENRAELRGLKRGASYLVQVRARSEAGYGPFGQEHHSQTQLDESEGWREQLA


Tests used:
Human EphA7 Fc fusion = target: T1, Human EphA7 Fc fusion; experiment: SPR
Rat EphA3 Fc fusion = target: T2, Rat EphA3 Fc fusion; experiment: SPR
Human EphA3 Fc fusion = target: T3, Human EphA3 Fc fusion; experiment: SPR
Human EphB4 Fc fusion = target: T4, Human EphB4 Fc fusion; experiment: SPR
Human EphA4 Fc fusion = target: T5, Human EphA4 Fc fusion (Human, UniProt P54764 20-547); experiment: SPR, Fc-tagged protein captured by anti-human IgG
T5 construct: Bought Fc fusion; also called Sino Biologics 11314-H03H; not shown: Fc of the bought fusion

Mouse EphA2 Fc fusion = target: T6, Mouse EphA2 Fc fusion (Mouse, UniProt Q03145 26-535, limits assumed); experiment: SPR, Fc-tagged EphA2 captured by anti-human IgG
T6 construct: Bought Fc fusion; also called R&D Systems 639-A2; not shown: Fc of the bought fusion

Human EphA5 = target: T7, Human EphA5 (Human, UniProt P54756 25-573, limits assumed, biotinylated, 3.1 mol biotin/monomer); experiment: SPR, biotinylated protein on streptavidin
T7 construct: Bought protein; also called R&D Systems 3036-A5
T7 sequence (P54756 25-573 limits assumed): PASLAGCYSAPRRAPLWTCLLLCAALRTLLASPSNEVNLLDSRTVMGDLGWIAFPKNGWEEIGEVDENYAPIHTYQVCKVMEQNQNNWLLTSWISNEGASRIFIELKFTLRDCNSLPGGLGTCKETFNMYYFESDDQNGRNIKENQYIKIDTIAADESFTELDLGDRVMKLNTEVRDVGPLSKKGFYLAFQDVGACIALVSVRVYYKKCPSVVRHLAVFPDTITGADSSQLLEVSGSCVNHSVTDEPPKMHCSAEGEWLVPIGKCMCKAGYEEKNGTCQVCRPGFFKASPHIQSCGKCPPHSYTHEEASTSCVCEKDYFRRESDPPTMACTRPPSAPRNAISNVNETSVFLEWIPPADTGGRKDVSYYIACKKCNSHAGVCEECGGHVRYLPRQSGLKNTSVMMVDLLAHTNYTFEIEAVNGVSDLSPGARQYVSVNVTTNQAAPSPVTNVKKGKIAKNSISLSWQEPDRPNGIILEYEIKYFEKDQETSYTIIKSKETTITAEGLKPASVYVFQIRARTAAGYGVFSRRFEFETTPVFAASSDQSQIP

T6 sequence (Q03145 26-535 limits assumed): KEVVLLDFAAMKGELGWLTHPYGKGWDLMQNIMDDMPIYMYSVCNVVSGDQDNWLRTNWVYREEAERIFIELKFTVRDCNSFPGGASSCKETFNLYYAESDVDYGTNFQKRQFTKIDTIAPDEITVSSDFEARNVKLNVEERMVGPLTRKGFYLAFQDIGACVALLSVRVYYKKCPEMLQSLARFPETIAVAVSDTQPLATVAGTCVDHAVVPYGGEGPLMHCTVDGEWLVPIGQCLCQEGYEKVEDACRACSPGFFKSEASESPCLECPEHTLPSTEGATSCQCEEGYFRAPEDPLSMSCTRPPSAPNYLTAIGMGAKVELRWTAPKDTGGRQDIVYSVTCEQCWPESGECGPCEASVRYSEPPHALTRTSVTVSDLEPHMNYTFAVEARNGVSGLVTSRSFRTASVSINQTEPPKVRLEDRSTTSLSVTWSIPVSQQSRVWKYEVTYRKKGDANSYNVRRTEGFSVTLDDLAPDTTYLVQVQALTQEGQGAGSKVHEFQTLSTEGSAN
T5 sequence (P54764 20-547 limits assumed): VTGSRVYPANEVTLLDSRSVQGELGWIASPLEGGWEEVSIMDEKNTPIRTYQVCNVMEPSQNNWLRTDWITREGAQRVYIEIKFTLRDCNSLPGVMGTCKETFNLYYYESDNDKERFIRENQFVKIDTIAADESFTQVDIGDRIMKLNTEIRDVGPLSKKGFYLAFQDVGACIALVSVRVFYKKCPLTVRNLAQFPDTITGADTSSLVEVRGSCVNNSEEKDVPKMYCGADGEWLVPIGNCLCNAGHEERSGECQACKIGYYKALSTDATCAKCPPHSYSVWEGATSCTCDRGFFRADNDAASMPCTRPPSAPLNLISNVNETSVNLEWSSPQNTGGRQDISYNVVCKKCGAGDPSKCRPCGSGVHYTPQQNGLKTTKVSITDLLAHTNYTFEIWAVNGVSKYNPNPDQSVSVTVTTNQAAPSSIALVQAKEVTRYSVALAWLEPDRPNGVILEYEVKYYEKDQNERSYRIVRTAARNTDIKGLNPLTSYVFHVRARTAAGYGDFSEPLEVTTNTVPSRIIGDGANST

Row | Binder | binding result (Human EphA7 Fc fusion) | binding result (Rat EphA3 Fc fusion) | binding result (Human EphA3 Fc fusion) | binding result (Human EphB4 Fc fusion) | binding result (Human EphA4 Fc fusion) | Kd (Mouse EphA2 Fc fusion) | t1/2 (Mouse EphA2 Fc fusion) | binding result (Human EphA5)
1 | AXDCPLVNPLCLHPGWTC (not fully specified; as BCY6014 (N-terminal (β-Ala)-Sar10; HArg; TATA scaffold on the 3 Cys) + ValCit-MMAE, Bicycle drug conjugate (BDC)) | no binding | no binding | no binding | no binding |  |  |  | 
2 | AXDCPLVNPLCLHPGWTC (not fully specified; as BCY6014 (N-terminal (β-Ala)-Sar10; HArg; TATA scaffold on the 3 Cys) + DM1-SS(SO3H)-, Bicycle drug conjugate (BDC)) | no binding | no binding | no binding | no binding |  |  |  | 
3 | AXDCPLVNPLCLHPGWTC (not fully specified; N-terminal (β-Ala)-Sar10 spacer precedes SEQ ID NO: 11; HArg (homoarginine) at residue 2 of SEQ ID NO: 11; three Cys cyclised on the TATA scaffold; DM1-SS(SO3H)- (DM1-SO3H-SPDB) on the N-terminal amine) |  |  |  |  | no binding (tested: 5 µM) | 18.3 nM | 1.9 min | no binding (tested: 25 µM)
4 | AXDCPLVNPLCLHPGWTC (not fully specified; N-terminal (β-Ala)-Sar10 spacer precedes SEQ ID NO: 11; HArg (homoarginine) at residue 2 of SEQ ID NO: 11; three Cys cyclised on the TATA scaffold; ValCit-MMAE (MMAE-PABC-Cit-Val-glutarate) on the N-terminal amine) |  |  |  |  | no binding (tested: 5 µM) | 21.8 nM | 1.8 min | no binding (tested: 25 µM)
